Literature values as cited in paper PMC2654521.
Values joined by “and” are separate entries in the source; they are usually repeats but may differ in a detail not shown here. Equal entries are not always repeated. Where two headings read alike, the source gives them in different places.

Tests used:
[1] = target: N-type calcium channel (Rattus norvegicus) (UniProt Q02294); test: radioligand
[2] = target: N-type calcium channel (Rattus norvegicus) (UniProt Q02294); test: radioligand; remark: listed apart in the source

Sequence of UniProt Q02294 (Q02294 whole entry): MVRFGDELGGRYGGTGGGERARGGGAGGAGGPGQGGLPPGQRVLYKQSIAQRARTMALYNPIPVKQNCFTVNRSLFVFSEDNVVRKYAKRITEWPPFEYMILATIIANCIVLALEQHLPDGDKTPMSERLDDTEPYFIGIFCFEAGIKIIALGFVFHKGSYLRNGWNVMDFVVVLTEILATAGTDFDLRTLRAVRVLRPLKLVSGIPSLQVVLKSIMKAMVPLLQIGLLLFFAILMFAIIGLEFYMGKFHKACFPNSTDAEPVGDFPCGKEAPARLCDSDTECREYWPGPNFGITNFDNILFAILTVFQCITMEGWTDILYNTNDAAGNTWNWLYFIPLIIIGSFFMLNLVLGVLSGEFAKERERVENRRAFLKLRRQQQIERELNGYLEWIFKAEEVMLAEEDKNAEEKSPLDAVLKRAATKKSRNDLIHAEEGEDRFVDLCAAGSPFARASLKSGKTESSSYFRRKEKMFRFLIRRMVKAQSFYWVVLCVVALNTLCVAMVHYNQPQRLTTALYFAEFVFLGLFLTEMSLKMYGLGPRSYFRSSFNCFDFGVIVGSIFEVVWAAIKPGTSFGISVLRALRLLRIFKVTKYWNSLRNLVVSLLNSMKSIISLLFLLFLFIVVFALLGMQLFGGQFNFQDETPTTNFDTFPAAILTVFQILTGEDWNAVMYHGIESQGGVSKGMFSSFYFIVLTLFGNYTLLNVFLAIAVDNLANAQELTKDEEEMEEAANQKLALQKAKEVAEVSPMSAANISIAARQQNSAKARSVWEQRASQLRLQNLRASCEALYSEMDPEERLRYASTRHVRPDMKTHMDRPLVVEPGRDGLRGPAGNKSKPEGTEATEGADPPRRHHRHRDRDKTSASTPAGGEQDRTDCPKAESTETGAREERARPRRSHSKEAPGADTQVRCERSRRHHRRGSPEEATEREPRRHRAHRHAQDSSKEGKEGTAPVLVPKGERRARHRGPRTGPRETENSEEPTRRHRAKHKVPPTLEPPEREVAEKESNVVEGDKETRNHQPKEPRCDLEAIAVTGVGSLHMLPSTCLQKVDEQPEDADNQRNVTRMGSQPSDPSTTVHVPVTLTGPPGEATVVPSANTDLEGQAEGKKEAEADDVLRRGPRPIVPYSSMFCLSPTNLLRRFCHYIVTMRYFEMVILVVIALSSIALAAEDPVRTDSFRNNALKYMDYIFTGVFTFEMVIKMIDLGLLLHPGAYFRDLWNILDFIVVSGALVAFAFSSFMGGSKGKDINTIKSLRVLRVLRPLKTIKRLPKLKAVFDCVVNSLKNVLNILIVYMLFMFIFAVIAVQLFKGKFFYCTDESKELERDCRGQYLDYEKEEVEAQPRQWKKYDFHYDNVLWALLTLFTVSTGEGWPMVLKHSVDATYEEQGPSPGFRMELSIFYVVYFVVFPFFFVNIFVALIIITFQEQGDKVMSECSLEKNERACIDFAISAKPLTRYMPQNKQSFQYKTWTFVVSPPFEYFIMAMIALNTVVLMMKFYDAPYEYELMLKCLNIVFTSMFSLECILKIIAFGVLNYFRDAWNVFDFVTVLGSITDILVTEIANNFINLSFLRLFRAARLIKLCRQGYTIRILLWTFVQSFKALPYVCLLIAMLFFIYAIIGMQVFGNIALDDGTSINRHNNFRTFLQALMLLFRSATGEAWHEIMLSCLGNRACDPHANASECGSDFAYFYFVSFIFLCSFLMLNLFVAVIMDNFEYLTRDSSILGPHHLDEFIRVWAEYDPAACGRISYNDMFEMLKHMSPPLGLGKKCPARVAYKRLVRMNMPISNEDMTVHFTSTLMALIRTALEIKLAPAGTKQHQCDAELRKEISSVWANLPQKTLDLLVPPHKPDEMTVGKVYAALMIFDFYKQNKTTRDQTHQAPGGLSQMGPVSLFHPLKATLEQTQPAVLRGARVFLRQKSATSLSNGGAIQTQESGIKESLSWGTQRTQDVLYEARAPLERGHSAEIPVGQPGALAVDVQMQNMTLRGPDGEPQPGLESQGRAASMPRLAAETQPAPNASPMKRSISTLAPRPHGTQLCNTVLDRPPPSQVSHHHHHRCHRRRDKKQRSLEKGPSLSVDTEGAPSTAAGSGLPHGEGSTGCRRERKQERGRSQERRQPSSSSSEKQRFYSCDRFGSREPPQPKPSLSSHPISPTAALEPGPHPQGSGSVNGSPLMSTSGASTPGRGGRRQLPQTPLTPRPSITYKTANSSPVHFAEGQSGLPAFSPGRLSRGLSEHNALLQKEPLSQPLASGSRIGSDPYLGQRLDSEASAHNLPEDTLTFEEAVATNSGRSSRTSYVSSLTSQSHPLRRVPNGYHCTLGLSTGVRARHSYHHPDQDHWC

## ziconotide (omega-conotoxin MVIIA) (from UniProt P05484)
[1]
  Kd: 7 pM and 18 pM
[2]
  Kd: 1.1 pM and 9 pM
  Ki: 1 pM
